Test results from the supplement of paper PMC9170038.

Tested on: MS2 coat protein
Assay: apparent KD of MS2 coat protein; designed switch direction (-1 OFF switch, 1 ON switch): 1; higher = weaker reporter binding
In short: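 Designed RNA switches with common flanks were transcribed on Illumina chips by stalled E. coli RNA polymerase and titrated with SNAP-549-labelled MS2 coat protein, from 0.7 or 1.5 nM doubling to 3 µM, in Tris-HCl pH 7.5 buffer with KCl, MgCl2, BSA, DTT, tRNA and Tween-20. Steps lasted 0.8–1.5 h (lowest) to 10–20 min (highest). Titrations ran without input, with 200 uM small-molecule ligand, or with an oligonucleotide input. Normalised cluster fluorescence was curve-fitted, and apparent KD is the per-design median over clusters.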

[1] = input ligand: microRNA oligo, concentration not stated
[2] = Eterna round: R95, input ligand: FMN 200 uM
[3] = Eterna round: R95, input ligand: microRNA oligo, concentration not stated
[4] = Eterna round: R95, input ligand: none

## AGCUAGGUGGCAGGAUAUGGGCACACCUACAUGAGGAUCACCCAUGUCUAAAGGUUGCAAAAGGACCAGAAGGGCCACGCUAGC [Onzaislege] (Eterna round: R96, puzzle: Same State NG 2)
Input ligand: FMN 200 uM
  apparent KD of MS2 coat protein: 19.2 nM
[1]
  apparent KD of MS2 coat protein: 82.7 nM
Input ligand: none
  apparent KD of MS2 coat protein: 178 nM

## GUGGUCAGACAUGAGGAUCACCCAUGUGGAAUAAAUAAGGGUCAGGAUAUCUAAUAUAGGAUAUAAGAGAAGGGAUGGUUGGUG (Eterna round: R96, puzzle: Same State NG 3)
Input ligand: FMN 200 uM
  apparent KD of MS2 coat protein: 89.2 nM
[1]
  apparent KD of MS2 coat protein: 89.4 nM
Input ligand: none
  apparent KD of MS2 coat protein: 82.7 nM

## AACAGUCGGCGAGGAUAUGGACGUACGGACUAACCCAUACGGCUCACAUGAGGAUCACCCAUGUUCUAGAAGGCGCCACUGAAA [Soisce] (Eterna round: R96, puzzle: Same State NG 2)
Input ligand: FMN 200 uM
  apparent KD of MS2 coat protein: 18.1 nM
[1]
  apparent KD of MS2 coat protein: 22.8 nM
Input ligand: none
  apparent KD of MS2 coat protein: 66.7 nM

## CGGAAACGUCAAGGAUAUGCUACCGUUUCGGUAGCAGAAGGUGAUCACAUGAGGAUCACCCAUGUAUGCAUGCGUGAGCGUGCU [JL SSNG1 3.56] (Eterna round: R96, puzzle: Same State NG 1)
Input ligand: FMN 200 uM
  apparent KD of MS2 coat protein: 206 nM
[1]
  apparent KD of MS2 coat protein: 187 nM
Input ligand: none
  apparent KD of MS2 coat protein: 177 nM

## UUUAAACAUGAGGAUCACCCAUGUUUUUUCAUGGGAGGAUAUCUAAGUUAAUUAUAUUAAGGAGAAGGCCUAUUUU [× ×•×ª×• ×ž×“×™× ×” × ×—×ª-05] (puzzle: Same State 1)
[2]
  apparent KD of MS2 coat protein: 111 nM
[3]
  apparent KD of MS2 coat protein: 48.8 nM
[4]
  apparent KD of MS2 coat protein: 53.1 nM

## UCCUCAGUUUCACAGGAUAUGCGCUGAGUCACAUGAGGAUCACCCAUGUAGACGGAAAAUGUCGGGCAGAAGGGUGAGGCAUAAA [Diretibe] (puzzle: Same State 2)
[2]
  apparent KD of MS2 coat protein: 57.2 nM
[3]
  apparent KD of MS2 coat protein: 117 nM
[4]
  apparent KD of MS2 coat protein: 4570 nM

## AUAAGUUUGAUGCUCGUCUCUCCGUACAGACAUGAGGAUCACCCAUGUAGUCGGGCAGUAGCCCGGCCAGUAUGGCC [Raatbeor] (puzzle: Sensor for hsa-mir-208a)
[2]
  apparent KD of MS2 coat protein: 103 nM
[3]
  apparent KD of MS2 coat protein: 28.8 nM
[4]
  apparent KD of MS2 coat protein: 119 nM

## AUGAUAUACUCAGGAUAUAUGCGAGACGACGAGAUAGAAGGGAGAAGAUAAUGACGUACAUGAGGAUCACCCAUGUGAGGAUCA [Same State NG1 S4] (Eterna round: R96, puzzle: Same State NG 1)
Input ligand: FMN 200 uM
  apparent KD of MS2 coat protein: 26.9 nM
[1]
  apparent KD of MS2 coat protein: 20.6 nM
Input ligand: none
  apparent KD of MS2 coat protein: 34 nM

## GGAGCCGGCACUGAGGAUAUUCGUAUUAAAACAUGAGGAUCACCCAUGUAGGCCAGAAGGCCUUGGGAGAAGGCAGGUCGACUCG [Diqureveri - 2] (puzzle: Same State 2)
[2]
  apparent KD of MS2 coat protein: 17.2 nM
[3]
  apparent KD of MS2 coat protein: 38.9 nM
[4]
  apparent KD of MS2 coat protein: 59.7 nM

## AGCUAUUAAUCAGGAUAUGGUGACAUGAGGAUCACCCAUGUAUUGAUGAUUAAAUGUGGUCACUACCAGAAGGGAUUACUAACA [SameState NG2 #50] (Eterna round: R96, puzzle: Same State NG 2)
Input ligand: FMN 200 uM
  apparent KD of MS2 coat protein: 34.2 nM
[1]
  apparent KD of MS2 coat protein: 221 nM
Input ligand: none
  apparent KD of MS2 coat protein: 260 nM

## UCUUGGUUUUUGCUCGUUUUUUGUGUUGAACAUGAGGAUCACCCAUGUAUUGUACGGUCCGAUUUGAUGAUGGUCCA [JMF 42] (puzzle: Sensor for hsa-mir-208a)
[2]
  apparent KD of MS2 coat protein: 31.4 nM
[3]
  apparent KD of MS2 coat protein: 22.2 nM
[4]
  apparent KD of MS2 coat protein: 35.1 nM

## UUCGAGUUGCAAGGAUAUCUUAUUUAGAUUUUAAGAGAAGGUGCUUCACAGCUACAUGAGGAUCACCCAUGUCUUUCUUCUUAU [JR_SSNG1_Sub064] (Eterna round: R96, puzzle: Same State NG 1)
[1]
  apparent KD of MS2 coat protein: 22.6 nM

## AGCUAUCGAAAACGAUAGCAAAAGCAUGUACAUGAGGAUCACCCAUGUCGUGUACAAGCUUUUUGCUCGUCUUAAAA [Zipper 23 - 5] (puzzle: Sensor for hsa-mir-208a)
[2]
  apparent KD of MS2 coat protein: 522 nM
[3]
  apparent KD of MS2 coat protein: 13.9 nM
[4]
  apparent KD of MS2 coat protein: 534 nM

## AAUUGUUUCUGAGGAUAUCAGUAGUAUGCCAAUUGAGAAGGCAGUACAUGAGGAUCACCCAUGUUGUGGUUUGAUAGAAUGAUA [JR_SSNG1_Sub002] (Eterna round: R96, puzzle: Same State NG 1)
Input ligand: FMN 200 uM
  apparent KD of MS2 coat protein: 170 nM
[1]
  apparent KD of MS2 coat protein: 143 nM
Input ligand: none
  apparent KD of MS2 coat protein: 181 nM

## AACAGUCGGCGAGGAUAUGGACGGACAGGCUUGCCUGUGCGGCUCACAUGAGGAUCACCCAUGUUCUAGAAGGCGCCACUGAGA [Atteve] (Eterna round: R96, puzzle: Same State NG 2)
Input ligand: FMN 200 uM
  apparent KD of MS2 coat protein: 21.3 nM
[1]
  apparent KD of MS2 coat protein: 50 nM
Input ligand: none
  apparent KD of MS2 coat protein: 81.7 nM

## CAGCGCUGUCGAGAGGAUAUGCGGUGAUGGACAUGAGGAUCACCCAUGUUAGCGAUGGCAUUACGGUAGAAGGCUCUACAGCUGC [Soteed - 4] (puzzle: Same State 2)
[3]
  apparent KD of MS2 coat protein: 26 nM

## GGGUGUGGAAGGAAAGACAGGGAAAGGAAACAUGAGGAUCACCCAUGUGAAGGAAGAAAGGGAGCUCGUCUUAUAAG [JR_SHM208A_Sub002] (puzzle: Sensor for hsa-mir-208a)
[2]
  apparent KD of MS2 coat protein: 26 nM
[3]
  apparent KD of MS2 coat protein: 27.6 nM
[4]
  apparent KD of MS2 coat protein: 35 nM

## GGUGGGUUGCUGCCGGCACAUGAGGAUCACCCAUGUUUUGGGAAGGAUAUGGUACCUAUUUGGUGCCAGAAGGUCCCGUUGGUG [salish99_SSNG3_r04_710] (Eterna round: R96, puzzle: Same State NG 3)
Input ligand: FMN 200 uM
  apparent KD of MS2 coat protein: 402 nM
[1]
  apparent KD of MS2 coat protein: 376 nM
Input ligand: none
  apparent KD of MS2 coat protein: 480 nM

## UAAAGAAAGCGAGGAUAUAGCCCAUGUGAAGAACUAGAAGGCGCAGACAUGAGGAUCACCCAUGUGUUCAUGAGGAGGAGGACA [Kawasakiqro] (Eterna round: R96, puzzle: Same State NG 1)
Input ligand: FMN 200 uM
  apparent KD of MS2 coat protein: 88.6 nM
[1]
  apparent KD of MS2 coat protein: 51.9 nM
Input ligand: none
  apparent KD of MS2 coat protein: 57.7 nM

## UAAGAACAUGAGGAUCACCCAUGUGGAAAGAACACAGGAUAUCAUAGUAGAACGAGACUAUGAGAAGGGUGACACG [Texeistean] (puzzle: Same State 1)
[2]
  apparent KD of MS2 coat protein: 595 nM
[3]
  apparent KD of MS2 coat protein: 214 nM
[4]
  apparent KD of MS2 coat protein: 666 nM

## GCUCGAUGAUAGUCCUACAUGAGGAUCACCCAUGUAAGUGGGCAGGAUAUCUACAUGCAGAAUGUAGAGAAGGGCCCGUCGAGC [SameState NG3 #56] (Eterna round: R96, puzzle: Same State NG 3)
Input ligand: FMN 200 uM
  apparent KD of MS2 coat protein: 16.1 nM
[1]
  apparent KD of MS2 coat protein: 16.4 nM
Input ligand: none
  apparent KD of MS2 coat protein: 23.2 nM

## CCGUUGAUGGGACAGGAUAUGACUGUCGUCACAUGAGGAUCACCCAUGUCCCGGCAAUGCCACCGUUAGAAGGGUCCCGUCUCGG [Edraedbibe] (puzzle: Same State 2)
[3]
  apparent KD of MS2 coat protein: 12 nM

## GGUGACUUAAGAGGAUAUCCCGUAACAUUCGUCGAUACGAGACAUGAGGAUCACCCAUGUGAAAUGGAGAAGGCUUUCGCAAAG [Eternabot solution 48] (Eterna round: R96, puzzle: Same State NG 2)
Input ligand: FMN 200 uM
  apparent KD of MS2 coat protein: 52.7 nM
[1]
  apparent KD of MS2 coat protein: 40 nM
Input ligand: none
  apparent KD of MS2 coat protein: 58.2 nM

## AUUAUACAUGAGGAUCACCCAUGUAAUUAAUUAAUUAAGAUCAAGGAUAUCAGCUCGAAUAGAGCUGAGAAGGUGAUCACAUGU [SSNG3/20-B1] (Eterna round: R96, puzzle: Same State NG 3)
[1]
  apparent KD of MS2 coat protein: 218 nM

## AGUCCAGCCUGAGCUGGACAAAAGCAUGUACAUGAGGAUCACCCAUGUCAUGUACAAGCUUUUUGCUCGUAUUAAUA [Mat - hsa-mir-208a - Mod of JL - D30] (puzzle: Sensor for hsa-mir-208a)
[2]
  apparent KD of MS2 coat protein: 491 nM
[3]
  apparent KD of MS2 coat protein: 12.7 nM
[4]
  apparent KD of MS2 coat protein: 528 nM

## GUUAGGAAUCUAGCAAACAUGAGGAUCACCCAUGUUAGUGGGAAGGAUAUGGUACAGAAACUGUACCAGAAGGUCUUAUUGAUU [Omei SS(NG) 3 AV4] (Eterna round: R96, puzzle: Same State NG 3)
Input ligand: FMN 200 uM
  apparent KD of MS2 coat protein: 40.2 nM
[1]
  apparent KD of MS2 coat protein: 33 nM
Input ligand: none
  apparent KD of MS2 coat protein: 59 nM

## UUGAAGAAUUAAGGAUAUCGAGUACAUAUGUUAAACAUGAGGAUCACCCAUGUGGGUUGCGGUAUCGAGAAGGUAAAUUACAAG [JL SSNG2 1.42] (Eterna round: R96, puzzle: Same State NG 2)
Input ligand: FMN 200 uM
  apparent KD of MS2 coat protein: 30.2 nM
[1]
  apparent KD of MS2 coat protein: 25.6 nM
Input ligand: none
  apparent KD of MS2 coat protein: 36.5 nM

## UGGUAACAUGAGGAUCACCCAUGUCAAAUGAAUCGAGGAUAUGGGAAUUAACAACACAAACUAGAAGGCGAAUUUG [Altered State 1-8 - Jieux - Same State 1] (Eterna round: R96, puzzle: Same State 1)
Input ligand: FMN 200 uM
  apparent KD of MS2 coat protein: 316 nM
[1]
  apparent KD of MS2 coat protein: 151 nM
Input ligand: none
  apparent KD of MS2 coat protein: 314 nM

## UUAUUAUUUACAUGAGGAUCACCCAUGUUUUUAUGUCAGAGAUAGGAUAUAGAAGUCUCGUUUUACUAGAAGGAUCUUUUUAUU [JR_SSNG3_Sub083] (Eterna round: R96, puzzle: Same State NG 3)
Input ligand: FMN 200 uM
  apparent KD of MS2 coat protein: 21.2 nM
[1]
  apparent KD of MS2 coat protein: 16.7 nM
Input ligand: none
  apparent KD of MS2 coat protein: 22.8 nM

## AGCUAGUACGAAGGAUAUACAAACAUGAGGAUCACCCAUGUAUACAUGGUUUGUUGUGACUACAUGUAGAAGGUCGUACUAGCA [SameState NG2 #16] (Eterna round: R96, puzzle: Same State NG 2)
Input ligand: FMN 200 uM
  apparent KD of MS2 coat protein: 362 nM
[1]
  apparent KD of MS2 coat protein: 773 nM
Input ligand: none
  apparent KD of MS2 coat protein: 987 nM

## GCGGAACAUGAGGAUCACCCAUGUAAAGGGUGUAAAGGAUAUUAUUGGGAGAAGGUAGGGUAAGAAGGUUGCUUGG [JR_SS1_Sub088] (Eterna round: R96, puzzle: Same State 1)
[1]
  apparent KD of MS2 coat protein: 432 nM

## GUUAAACAUGAGGAUCACCCAUGUAAUAAUAUGGGAGGAUAUCAGAAAUUAUGUAUUAAAUGAGAAGGCCUAAUUG [Mat - Same State 1 - Mod of Eli - D80] (puzzle: Same State 1)
[2]
  apparent KD of MS2 coat protein: 125 nM
[3]
  apparent KD of MS2 coat protein: 585 nM
[4]
  apparent KD of MS2 coat protein: 769 nM
